Measured values as given in article PMC5052711.

B1: hTRPA1: N747/753Q (protein)
parent chain: MKRSLRKMWRPGEKKEPQGVVYEDVPDDTEDFKESLKVVFEGSAYGLQNFNKQKKLKRCDDMDTFFLHYAAAEGQIELMEKITRDSSLEVLHEMDDYGNTPLHCAVEKNQIESVKFLLSRGANPNLRNFNMMAPLHIAVQGMNNEVMKVLLEHRTIDVNLEGENGNTAVIIACTTNNSEALQILLKKGAKPCKSNKWGCFPIHQAAFSGSKECMEIILRFGEEHGYSRQLHINFMNNGKATPLHLAVQNGDLEMIKMCLDNGAQIDPVEKGRCTAIHFAATQGATEIVKLMISSYSGSVDIVNTTDGCHETMLHRASLFDHHELADYLISVGADINKIDSEGRSPLILATASASWNIVNLLLSKGAQVDIKDNFGRNFLHLTVQQPYGLKNLRPEFMQMQQIKELVMDEDNDGCTPLHYACRQGGPGSVNNLLGFNVSIHSKSKDKKSPLHFAASYGRINTCQRLLQDISDTRLLNEGDLHGMTPLHLAAKNGHDKVVQLLLKKGALFLSDHNGWTALHHASMGGYTQTMKVILDTNLKCTDRLDEDGNTALHFAAREGHAKAVALLLSHNADIVLNKQQASFLHLALHNKRKEVVLTIIRSKRWDECLKIFSHNSPGNKCPITEMIEYLPECMKVLLDFCMLHSTEDKSCRDYYIEYNFKYLQCPLEFTKKTPTQDVIYEPLTALNAMVQNNRIELLNHPVCKEYLLMKWLAYGFRAHMMNLGSYCLGLIPMTILVVNIKPGMAFNSTGIINETSDHSEILDTTNSYLIKTCMILVFLSSIFGYCKEAGQIFQQKRNYFMDISNVLEWIIYTTGIIFVLPLFVEIPAHLQWQCGAIAVYFYWMNFLLYLQRFENCGIFIVMLEVILKTLLRSTVVFIFLLLAFGLSFYILLNLQDPFSSPLLSIIQTFSMMLGDINYRESFLEPYLRNELAHPVLSFAQLVSFTIFVPIVLMNLLIGLAVGDIAEVQKHASLKRIAMQVELHTSLEKKLPLWFLRKVDQKSTIVYPNKPRSGGMLFHIFCFLFCTGEIRQEIPNADKSLEMEILKQKYRLKDLTFLLEKQHELIKLIIQKMEIISETEDDDSHCSFQDRFKKEQMEQRNSRWNTVLRAVKAKTHHLEP
B2: hTRPA1: N753Q (protein)
parent chain: B1 parent chain
B3: hTRPA1: N747Q (protein)
parent chain: B1 parent chain

What was measured:
[1] = fluorometric membrane depolarization, FlexStation, 37°C; details: glycan lost; control: wild type
[2] = anti-FLAG WB of cell lysates, normalized to total protein; details: glycan lost; control: wild type
[3] = fluorometric membrane depolarization, 23°C vs 37°C; details: glycan lost; control: wild type (less sensitive at 23°C than at 37°C)
[4] = whole-cell patch-clamp, maximum amplitude; details: glycan lost; control: wild type
[5] = fluorometric membrane depolarization, maximal RFU; details: glycan lost; control: wild type
[6] = ratio of WT-relative surface to WT-relative total expression; details: glycan lost; control: wild type
[7] = whole-cell patch-clamp, 37°C; details: glycan lost; control: wild type

Protein | other: agonist sensitivity, EC50 [1] | expression_or_secretion, fold_change [2] | other: temperature dependence of agonist sensitivity, EC50 [3] | other: channel current [4] | other: maximal channel response, other: mean maximal RFU [5] | localisation_or_trafficking, other: surface/total ratio relative to WT [6] | other: agonist sensitivity, EC50 [7]
B1 | decreases, 20.9 vs 9.5 | decreases | changes, 14.8 vs 13.5 | no change | no change, 866 vs 1155 | no change | decreases, 142.3 vs 35.0
B2 | no change, 10.5 vs 9.5 | decreases | no change, 18.0 vs 13.5 | no change | no change, 902 vs 1155 | no change | no change, 42.0 vs 35.0
B3 | – | decreases | changes, 18.2 vs 13.5 | no change | no change, 947 vs 1155 | increases | decreases, 141.0 vs 35.0
